The values below come from patent US10780117.

This series addresses Myc-tagged CRT expressed in J774 cells.

Chain of Myc-tagged CRT expressed in J774 cells (P27797 18-417): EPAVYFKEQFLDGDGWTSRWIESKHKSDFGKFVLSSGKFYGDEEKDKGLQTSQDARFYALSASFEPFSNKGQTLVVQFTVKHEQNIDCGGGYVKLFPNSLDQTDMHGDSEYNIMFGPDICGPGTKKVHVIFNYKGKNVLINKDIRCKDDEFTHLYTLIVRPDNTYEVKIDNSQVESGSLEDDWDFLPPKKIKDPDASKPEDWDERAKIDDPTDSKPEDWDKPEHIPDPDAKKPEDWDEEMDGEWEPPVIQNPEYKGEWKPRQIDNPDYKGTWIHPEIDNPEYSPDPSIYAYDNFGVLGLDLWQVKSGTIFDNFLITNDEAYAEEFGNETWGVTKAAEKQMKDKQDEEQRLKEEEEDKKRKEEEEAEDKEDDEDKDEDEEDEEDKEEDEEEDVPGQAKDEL

B1: Bruton's tyrosine kinase (Btk) in J774 mouse macrophage cells (protein)
chain: AAVILESIFLKRSQQKKKTSPLNFKKRLFLLTVHKLSYYEYDFERGRRGSKKGSIDVEKITCVETVIPEKNPPPERQIPRRGEESSEMEQISIIERFPYPFQVVYDEGPLYVFSPTEELRKRWIHQLKNVIRYNSDLVQKYHPCFWIDGQYLCCSQTAKNAMGCQILENRNGSLKPGSSHRKTKKPLPPTPEEDQILKKPLPPEPTAAPISTTELKKVVALYDYMPMNANDLQLRKGEEYFILEESNLPWWRARDKNGQEGYIPSNYITEAEDSIEMYEWYSKHMTRSQAEQLLKQEGKEGGFIVRDSSKAGKYTVSVFAKSTGEPQGVIRHYVVCSTPQSQYYLAEKHLFSTIPELINYHQHNSAGLISRLKYPVSKQNKNAPSTAGLGYGSWEIDPKDLTFLKELGTGQFGVVKYGKWRGQYDVAIKMIREGSMSEDEFIEEAKVMMNLSHEKLVQLYGVCTKQRPIFIITEYMANGCLLNYLREMRHRFQTQQLLEMCKDVCEAMEYLESKQFLHRDLAARNCLVNDQGVVKVSDFGLSRYVLDDEYTSSVGSKFPVRWSPPEVLMYSKFSSKSDIWAFGVLMWEIYSLGKMPYERFTNSETAEHIAQGLRLYRPHLASERVYTIMYSCWHEKADERPSFKILLSNILDVMDEES
In the case of B1, the “tyrosine phosphorylation of immunoprecipitated myc-CRT (immunoblot with anti-phosphotyrosine antibody)” value is given as “Immunoblot showing CRT phosphorylation upon Btk activation”.
